From patent US20050239710

Biological target: T1, 19-mer (SEQ ID NO:11) cleavage domain peptide
T1 chain: PRCGNPDVANYNFFPRKPK

B1: Proenzyme pro-MMP-9 (protein)
chain: APRQRQSTLVLFPGDLRTNLTDRQLAEEYLYRYGYTRVAEMRGESKSLGPALLLLQKQLSLPETGELDSATLKAMRTPRCGVPDLGRFQTFEGDLKWHHHNITYWIQNYSEDLPRAVIDDAFARAFALWSAVTPLTFTRVYSRDADIVIQFGVAEHGDGYPFDGKDGLLAHAFPPGPGIQGDAHFDDDELWSLGKGVVVPTRFGNADGAACHFPFIFEGRSYSACTTDGRSDGLPWCSTTANYDTDDRFGFCPSERLYTQDGNADGKPCQFPFIFQGQSYSACTTDGRSDGYRWCATTANYDRDKLFGFCPTRADSTVMGGNSAGELCVFPFTFLGKEYSTCTSEGRGDGRLWCATTSNFDSDKKWGFCPDQGYSLFLVAAHEFGHALGLDHSSVPEALMYPMYRFTEGPPLHKDDVNGIRHLYGPRPEPEPRPPTTTTPQPTAPPTVCPTGPPTVHPSERPTAGPTGPPSAGPTGPPTAGPSTATTVPLSPVDDACNVNIFDAIAEIGNQLYLFKDGKYWRFSEGRGSRPQGPFLIADKWPALPRKLDSVFEERLSKKLFFFSGRQVWVYTGASVLGPRRLDKLGLGADVAQVTGALRSGRGKMLLFSGRRLWRFDVKAQMVDPRSASEVDRMFPGVPLDTHDVFQYREKAYFCQDRFYWRVSSRSELNQVDQVGYVTYDILQCPED
conversion of pro-MMP-9 into prodomain and active enzyme by stromilysin (HPLC splicing assay): Splicing can be inhibited in a dose dependent manner with micromolar 19-mer (SEQ ID NO:11) peptide.
